Results from patent publication US7741277 (AETERNA ZENTARIS, dated 2010).
Several values for one entry are separate records, joined by “and”; a condition that tells them apart may be missing. Equal values may be shown once.

T1: human GnRH receptor (hGnRH-R) (human, UniProt P30968 1-328)
T1 sequence (looked up): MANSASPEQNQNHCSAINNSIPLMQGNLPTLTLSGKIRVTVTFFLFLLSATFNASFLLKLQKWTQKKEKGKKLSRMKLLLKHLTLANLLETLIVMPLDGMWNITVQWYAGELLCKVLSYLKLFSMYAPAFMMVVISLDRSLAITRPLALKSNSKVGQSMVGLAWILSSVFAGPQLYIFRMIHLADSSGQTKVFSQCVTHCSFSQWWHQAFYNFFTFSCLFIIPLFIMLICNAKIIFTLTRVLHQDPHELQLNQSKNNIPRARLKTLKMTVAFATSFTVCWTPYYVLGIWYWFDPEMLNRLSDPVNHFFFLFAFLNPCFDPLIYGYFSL


Biological target: T1, human GnRH receptor (hGnRH-R)
Test: cell-based or functional assay

Molecule | proliferation status after 96 h (vital cells, untreated control = 100%), hGnRH-R positive cell line 5C6, 100 nM (% of untreated control) | proliferation status after 96 h (vital cells, untreated control = 100%), hGnRH-R positive cell line 5C6, 0.1 nM | proliferation status after 96 h (vital cells, untreated control = 100%), hGnRH-R positive cell line 5C6, 1 nM | proliferation status after 96 h (vital cells, untreated control = 100%), hGnRH-R positive cell line 5C6, 10 nM | proliferation status after 96 h (vital cells, untreated control = 100%), hGnRH-R positive cell line 5C6, 100 nM
AN-152 (peptide) | 42.1 and 43.9 | – | – | – | –
XHWSYKLRPG (Glp (pyroglutamate) at 1; D-Lys at 6, joined through a glutaryl linker to disorazole Z; C-terminal amide) [disorazole Z bis hemi glutaryl [D-Lys^6]LHRH (17)] | – | 95.5 % of untreated control | 85.9 % of untreated control | 58.5 % of untreated control | 41.7 % of untreated control
XHWSYKLRPG (Glp (pyroglutamate) at 1; D-Lys at 6, joined through a succinyl linker to disorazole E1; C-terminal amide) [disorazole E1 mono hemi succinyl [D-Lys^6]LHRH, both regio-isomers (13) & (14)] | – | 85.9 % of untreated control | 80.8 % of untreated control | 45.9 % of untreated control | 14.6 % of untreated control
XHWSYKLRPG (Glp (pyroglutamate) at 1; D-Lys at 6, joined through a succinyl linker to disorazole Z; C-terminal amide) [disorazole Z mono hemi succinyl [D-Lys^6]LHRH (16)] | – | 83.8 % of untreated control | 80.9 % of untreated control | 54.1 % of untreated control | 21.9 % of untreated control
